Here are results for one molecule from patent US20170267737A1 (published 2017).

For the test, the target named is T1, glypican-3 (GPC3) peptide on HLA-A*02:01 (human).
T1 peptide: FIDKKVLKV
The experiment in a line: multimer staining.

B1: TCR P1-1 (TCR, V domains shown)
Valpha: AQSVTQPDIHITVSEGASLELRCNYSYGATPYLFWYVQSPGQGLQLLLKYFSGDTLVQGIKGFEAEFKRSQSSFNLRKPSVHWSDAAEYFCAVGVLNFGNEKLTFGTGTRLTIIP
Vbeta: SQTIHQWPATLVQPVGSPLSLECTVEGTSNPNLYWYRQAAGRGLQLLFYSVGIGQISSEVPQNLSASRPQDRQFILSSKKLLLSDSGFYLCAWSEDTAYYGYTFGSGTRLTVV
Turning to B1, the binding result is “recognises”.
